The series concerns the target MBP-OsMADS47 (Oryza sativa (cv. Nipponbare, NIP?), UniProt Q5K4R0 1-250). Nature of the series: EMSA; EMSA buffer not stated (performed as described previously, ref 61); unlabeled competitors at 10x, 100x, 1000x. The note with it: protein: recombinant; tags: MBP (N-terminal, pMAL); chain copies: 2; label: biotin 3'-end; blunt. (In general: A gel shift assay detects complexes by their altered migration in electrophoresis.)

Sequence of MBP-OsMADS47 (Q5K4R0 whole entry): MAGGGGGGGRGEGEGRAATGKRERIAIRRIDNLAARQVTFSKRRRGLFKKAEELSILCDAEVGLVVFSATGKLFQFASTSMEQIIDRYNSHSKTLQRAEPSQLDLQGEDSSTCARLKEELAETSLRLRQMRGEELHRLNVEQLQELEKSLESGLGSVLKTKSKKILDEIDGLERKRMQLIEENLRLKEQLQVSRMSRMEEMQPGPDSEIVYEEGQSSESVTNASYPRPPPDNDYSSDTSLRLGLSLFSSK

B1: GS3-P4 (dsDNA)
DNA 1: CCACCGTCCCCCCTTCCCCCTCCAACCAGATCTGGGAGGAAGGGAGGGAGGGAGGGGAG
DNA 2: CTCCCCTCCCTCCCTCCCTTCCTCCCAGATCTGGTTGGAGGGGGAAGGGGGGACGGTGG
As for B1, the binding result is “binds”.

B2: GS3-P2 (dsDNA)
DNA 1: CTCTCCCTTCCATCATTACTTGCCCAAAAACGGCAATCCCCTCCCCTCCATCTCCATGTG
DNA 2: CACATGGAGATGGAGGGGAGGGGATTGCCGTTTTTGGGCAAGTAATGATGGAAGGGAGAG
With B2, the binding result is “binds”.

B3: GW8-P3 (dsDNA)
DNA 1: CTACTTTCCTTATTCCACTAGAAATCATATATACCTTTCTCACTCTACATAATC
DNA 2: GATTATGTAGAGTGAGAAAGGTATATATGATTTCTAGTGGAATAAGGAAAGTAG
As for B3, the binding result was “binds”.

B4: GS3-P5 (dsDNA)
DNA 1: CTTTTCTAAACGATATTCTTCATGAACCAAAGGAGGGAAGCTCATTCCGAAAATTTTTCC
DNA 2: GGAAAAATTTTCGGAATGAGCTTCCCTCCTTTGGTTCATGAAGAATATCGTTTAGAAAAG
With B4, the binding result is given as “binds”.

B5: GS3-P3 (dsDNA)
DNA 1: GCCACCCTCCCTACGACGTAGCCAGATATGGGTGGAGAGGTAAGCGCCGCCGCCGCTGC
DNA 2: GCAGCGGCGGCGGCGCTTACCTCTCCACCCATATCTGGCTACGTCGTAGGGAGGGTGGC
With B5, the binding result is given as “binds”.

B6: GW8-P1 (dsDNA)
DNA 1: CTTATAGTCCAACAATTTGAGAGCAATTAATGGTCAAAAATTAAATGAAAAATAGAAATTC
DNA 2: GAATTTCTATTTTTCATTTAATTTTTGACCATTAATTGCTCTCAAATTGTTGGACTATAAG
For B6, the binding result was “binds”.

B7: GW8-P2 (dsDNA)
DNA 1: GTAACTGACTACCCCCAGTTCCTGCCCTCTTGGGCCTTGGTATTGTTGCTCCAAG
DNA 2: CTTGGAGCAACAATACCAAGGCCCAAGAGGGCAGGAACTGGGGGTAGTCAGTTAC
Take B7: the binding result is “binds”.

B8: GS3-P1 (dsDNA)
DNA 1: GCTGCACAACCCGCGATGCCGTCGGCCGGATTTGGGAGGTGGAGCGTCGCCGCCCTCC
DNA 2: GGAGGGCGGCGACGCTCCACCTCCCAAATCCGGCCGACGGCATCGCGGGTTGTGCAGC
Consider B8, for which the binding result is on record as “binds”.

The values are drawn from publication PMC12376620, “A Novel OsMPK6‐OsMADS47‐PPKL1/3 Module Controls Grain Shape and Yield in Rice”.
